Source: publication PMC12509902, “PRMT1/PRMT5-Mediated Differential Arginine Methylation of CRIP1 Promotes the Recurrence of Small Cell Lung Cancer after Chemotherapy” (International Journal of Biological Sciences, 2025)

Molecular target: T1, 3×Flag-PRMT5 (UniProt O14744 1-637)
T1 construct: Protein arginine methyltransferase 5 (PRMT5), from plasmid pCDH-CMV-3×Flag-PRMT5
Experiment: pull-down; GST pull-down as described in ref. 23; GST-tagged protein expressed in BL21; Flag-tagged protein purified from HEK-293T by Flag affinity gel and 3× FLAG peptide elution; the paper calls the binding direct
Conditions: both partners purified

T1 sequence (O14744 whole entry): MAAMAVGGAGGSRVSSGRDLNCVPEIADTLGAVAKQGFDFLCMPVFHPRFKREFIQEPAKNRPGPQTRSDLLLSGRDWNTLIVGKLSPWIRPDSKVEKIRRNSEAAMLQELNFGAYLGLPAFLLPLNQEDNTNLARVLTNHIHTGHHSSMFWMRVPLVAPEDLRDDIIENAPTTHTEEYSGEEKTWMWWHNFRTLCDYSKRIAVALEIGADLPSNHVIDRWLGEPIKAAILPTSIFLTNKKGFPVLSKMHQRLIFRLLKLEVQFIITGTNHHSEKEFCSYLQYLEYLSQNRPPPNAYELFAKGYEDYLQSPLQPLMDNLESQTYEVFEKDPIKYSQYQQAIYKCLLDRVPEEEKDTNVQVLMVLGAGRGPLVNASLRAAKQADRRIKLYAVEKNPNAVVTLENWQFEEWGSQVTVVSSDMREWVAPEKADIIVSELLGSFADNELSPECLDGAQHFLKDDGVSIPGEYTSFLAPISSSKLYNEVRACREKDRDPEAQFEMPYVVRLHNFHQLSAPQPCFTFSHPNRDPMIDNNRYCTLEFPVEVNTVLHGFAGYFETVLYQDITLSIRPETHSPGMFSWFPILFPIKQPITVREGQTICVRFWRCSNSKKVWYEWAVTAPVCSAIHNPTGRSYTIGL

binding result: binds
B1: GST-CRIP1, full-length (FL), wild type (natural protein, UniProt P50238 1-77, looked up)
chain: MPKCPKCNKEVYFAERVTSLGKDWHRPCLKCEKCGKTLTSGGHAEHEGKPYCNHPCYAAMFGPKGFGRGGAESHTFK
notes: Cysteine-rich intestinal protein 1 (CRIP1), full length, in pGEX-6P-1; also called GST-CRIP1 WT; source: E. coli BL21, induced with 1 mM IPTG
